Results as given in patent US20100249029A1 (Novo Nordisk, published 2010).
Numbering of substitutions follows the chain as printed. Numbers in names are those of the source. Values belong to the binder of their own block, whether it stands above or below them.

How the values were obtained:
[1] = target: T1, PRLR stably expressed on Ba/F3 cells (Ba/F3-PRLR) (UniProt P16471 25-622, limits assumed); assay: cell-based or functional assay
T1 sequence (looked up): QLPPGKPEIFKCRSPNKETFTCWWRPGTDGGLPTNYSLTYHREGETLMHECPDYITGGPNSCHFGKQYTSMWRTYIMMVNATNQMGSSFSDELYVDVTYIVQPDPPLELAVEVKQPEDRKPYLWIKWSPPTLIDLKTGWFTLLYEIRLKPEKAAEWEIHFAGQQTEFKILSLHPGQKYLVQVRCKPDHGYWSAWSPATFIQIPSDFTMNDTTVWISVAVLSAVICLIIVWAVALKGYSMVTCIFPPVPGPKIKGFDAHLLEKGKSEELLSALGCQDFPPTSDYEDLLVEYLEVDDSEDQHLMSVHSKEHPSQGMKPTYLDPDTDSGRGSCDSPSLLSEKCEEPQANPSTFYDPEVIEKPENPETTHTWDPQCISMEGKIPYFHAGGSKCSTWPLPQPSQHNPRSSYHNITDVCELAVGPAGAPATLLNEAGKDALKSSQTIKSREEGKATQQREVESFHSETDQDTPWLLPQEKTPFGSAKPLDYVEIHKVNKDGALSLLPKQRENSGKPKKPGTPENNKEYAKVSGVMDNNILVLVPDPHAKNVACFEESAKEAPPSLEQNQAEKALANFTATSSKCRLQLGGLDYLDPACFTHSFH

[2] = target: T2, Biotinylated prolactin receptor BirATag-Ser-PRLR (1-210) (human, UniProt P16471 25-234, biotinylated (BirA tag, biotin added during expression in E. coli)); assay: SPR (Biacore); BirATag-Ser-PRLR (1-210) on CM5 chip, analogue injected at 1.6-25 nM (FIG. 5)
T2 construct: range 1-210; also called BirA-Ser-PRLR (1-210); not shown: BirA tag (biotin acceptor tag)
T2 sequence: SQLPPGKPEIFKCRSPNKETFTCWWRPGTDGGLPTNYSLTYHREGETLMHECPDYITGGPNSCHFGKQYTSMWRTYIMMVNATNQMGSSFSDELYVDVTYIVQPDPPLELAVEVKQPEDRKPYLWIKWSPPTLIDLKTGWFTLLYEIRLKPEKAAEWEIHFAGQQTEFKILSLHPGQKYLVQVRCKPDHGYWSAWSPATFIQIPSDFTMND
Protocol: (§1) Biotinylated prolactin receptor BirATag-Ser-PRLR (1-210) was diluted to 20 μg/ml in 10 mM sodium acetate pH 4.0 (Biacore BR-1003-49) and immobilized on the CM5 chip (Biacore BR-1006-68) with the immobilization reagents 1-ethyl-3-(3-dimethylaminopropyl) carbodiimide hydrochloride (EDC), N-hydroxysuccinimide (NHS) and 1.0 M ethanolamine-HCl pH 8.5 (Biacore BR1000-50). The immobilization level was 1500 RU. The PRL analogues were diluted to a series of concentrations as following: 1.6/3.13/6.25/12.5/25 nM and run through the PRLR immobilized chip using HBS-EP (10 mM HEPES pH 7.4; 150 mM NaCl; 3 mM EDTA; 0.005% v/v Tween-20) as the running buffer under the following conditions: […]

[3] = target: T2, Biotinylated prolactin receptor …; assay: SPR (Biacore); biotinylated BirATag-Ser-PRLR (1-210) amine-coupled to CM5 chip, variant injected at 3.13-50 nM; STDEV 0.000
Protocol: as §1, with “on a” for “on the”, “PRL variants prepared as described in Example 5” for “PRL analogues”, “following: 3.13/6.25/12.5/25/50” for “following: 1.6/3.13/6.25/12.5/25”

[4] = target: T2, Biotinylated prolactin receptor …; assay: Biacore SPR, BirATag-Ser-PRLR (1-210) immobilised on a CM5 chip, PRL analogues 1.6-25 nM
Protocol: as §1

[5] = target: T1, PRLR stably expressed on Ba/F3 cells …; assay: cell-based or functional assay; remark: listed apart in the source
[6] = target: T2, Biotinylated prolactin receptor …; assay: SPR (Biacore); biotinylated BirATag-Ser-PRLR (1-210) amine-coupled to CM5 chip, control injected at 3.13-50 nM; STDEV 1.63; one value under a double label
Protocol: as §1, with “on a” for “on the”, “PRL variants prepared as described in Example 5” for “PRL analogues”, “following: 3.13/6.25/12.5/25/50” for “following: 1.6/3.13/6.25/12.5/25”

[7] = target: T2, Biotinylated prolactin receptor …; assay: SPR (Biacore); biotinylated BirATag-Ser-PRLR (1-210) amine-coupled to CM5 chip, variant injected at 3.13-50 nM; STDEV 0.17
Protocol: as §1, with “on a” for “on the”, “PRL variants prepared as described in Example 5” for “PRL analogues”, “following: 3.13/6.25/12.5/25/50” for “following: 1.6/3.13/6.25/12.5/25”

[8] = target: T2, Biotinylated prolactin receptor …; assay: SPR (Biacore); biotinylated BirATag-Ser-PRLR (1-210) amine-coupled to CM5 chip, variant injected at 3.13-50 nM; STDEV 0.092
Protocol: as §1, with “on a” for “on the”, “PRL variants prepared as described in Example 5” for “PRL analogues”, “following: 3.13/6.25/12.5/25/50” for “following: 1.6/3.13/6.25/12.5/25”

[9] = target: T2, Biotinylated prolactin receptor …; assay: SPR (Biacore); biotinylated BirATag-Ser-PRLR (1-210) amine-coupled to CM5 chip, variant injected at 3.13-50 nM; STDEV 0.29
Protocol: as §1, with “on a” for “on the”, “PRL variants prepared as described in Example 5” for “PRL analogues”, “following: 3.13/6.25/12.5/25/50” for “following: 1.6/3.13/6.25/12.5/25”

[10] = target: T2, Biotinylated prolactin receptor …; assay: SPR (Biacore); biotinylated BirATag-Ser-PRLR (1-210) amine-coupled to CM5 chip, variant injected at 3.13-50 nM; STDEV 0.042
Protocol: as §1, with “on a” for “on the”, “PRL variants prepared as described in Example 5” for “PRL analogues”, “following: 3.13/6.25/12.5/25/50” for “following: 1.6/3.13/6.25/12.5/25”

[11] = target: T2, Biotinylated prolactin receptor …; assay: SPR (Biacore); biotinylated BirATag-Ser-PRLR (1-210) amine-coupled to CM5 chip, variant injected at 3.13-50 nM; STDEV 0.28
Protocol: as §1, with “on a” for “on the”, “PRL variants prepared as described in Example 5” for “PRL analogues”, “following: 3.13/6.25/12.5/25/50” for “following: 1.6/3.13/6.25/12.5/25”

[12] = target: T2, Biotinylated prolactin receptor …; assay: SPR (Biacore); biotinylated BirATag-Ser-PRLR (1-210) amine-coupled to CM5 chip, variant injected at 3.13-50 nM; STDEV 0.44
Protocol: as §1, with “on a” for “on the”, “PRL variants prepared as described in Example 5” for “PRL analogues”, “following: 3.13/6.25/12.5/25/50” for “following: 1.6/3.13/6.25/12.5/25”

- EC50, Ba/F3-PRLR proliferation assay [1]: 0.102 nM
- EC50, stimulation (proliferation) assay, Ba/F3-PRLR cell line PRLR-09 [1]: 0.054 nM
- EC50, stimulation (proliferation) assay, Ba/F3-PRLR cell line PRLR-32 [1]: 0.0375 nM
B1: wild type human prolactin (ligand)
chain: LPICPGGAARCQVTLRDLFDRAVVLSHYIHNLSSEMFSEFDKRYTHGRGFITKAINSCHTSSLATPEDKEQAQQMNQKDFLSLIVSILRSWNEPLYHLVTEVRGMQEAPEAILSKAVEIEEQTKRLLEGMELIVSQVHPETKENEIYPVWSGLPSLQMADEESRLSAYYNLLHCLRRDSHKIDNYLKLLKCRIIHNNNC

- fold higher affinity than wt PRL and [PRL G129R] [2]: ~2 fold
B2: [PRL S33A, Q73L, G129R, K190R] (ligand)
chain: B1 chain with S33A, Q73L, G129R, K190R

- Kd [3]: 1.4 nM
B3: PRL S61A, D68N, G129R, K190R (ligand)
chain: B1 chain with S61A, D68N, G129R, K190R
notes: Printed without the prefix Ser-; No. 23 carries the same substitutions with Ser-

- binding result [4]: binds
B4: PRL S61A, Q71A, Q73A, G129R (ligand)
prolactin variant: B1 chain with S61A, Q71A, Q73A, G129R
notes: It is not in the first reading's list; also called rational designed mutant

- EC50, Ba/F3-PRLR proliferation assay [1]: 3.2 nM
- highest proliferation rate relative to wtPRL, Ba/F3-PRLR proliferation assay [1]: 12 % of wtPRL
- EC50 (so in the source); inhibition of proliferation of Ba/F3-PRLR cells stimulated with 1 nM wtPRL, OD490nM [5]: 64.6 nM
- LOGEC50 (same fit) [5]: -7.19 LogM
- Kd [6]: 13.9 nM
B5: PRL G129R (ligand)
chain: B1 chain with G129R
notes: also called [2H,15N]PRL-G129R; [2H,13C,15N]PRL-G129R

- antagonist activity relative to [PRL G129R], Ba/F3-PRLR competition assay against 1 nM wtPRL [1]: ~4 fold
- EC50 (so in the source); inhibition of proliferation of Ba/F3-PRLR cells stimulated with 1 nM wtPRL, OD490nM [5]: 13.8 nM
- LOGEC50 (same fit) [5]: -7.86 LogM
- fold higher affinity than wt PRL and [PRL G129R] [2]: ~2 fold
B6: [PRL Q73L, M75T, N76S, F80L, G129R] (ligand)
chain: B1 chain with Q73L, M75T, N76S, F80L, G129R
notes: also called HTPN-62

- Kd [7]: 2.6 nM
B7: Ser-PRL Q73L, G129R, K190R (ligand)
chain: SLPICPGGAARCQVTLRDLFDRAVVLSHYIHNLSSEMFSEFDKRYTHGRGFITKAINSCHTSSLATPEDKEQALQMNQKDFLSLIVSILRSWNEPLYHLVTEVRGMQEAPEAILSKAVEIEEQTKRLLERMELIVSQVHPETKENEIYPVWSGLPSLQMADEESRLSAYYNLLHCLRRDSHKIDNYLKLLRCRIIHNNNC

- Kd [8]: 2.6 nM
B8: Ser-PRL K42R, Q73L, G129R, K190R (ligand)
chain: B7 chain with K43R

- Kd [9]: 3.1 nM
B9: Ser-PRL S38I, D68N, G129R, S179T, I182V (ligand)
chain: B7 chain with S39I, D69N, L74Q, S180T, I183V, R191K

- Kd [10]: 3.2 nM
B10: Ser-PRL G129R, K190R, I194V, H195Y, N196R, N197D (ligand)
chain: B7 chain with L74Q, I195V, H196Y, N197R, N198D

- Kd [11]: 3.6 nM
B11: Ser-PRL Q73L M75T N76S F80L G129R (ligand)
chain: B7 chain with M76T, N77S, F81L, R191K

- Kd [12]: 3.8 nM
B12: Ser-PRL S33A, Q73L, G129R, K190R, I194V, H195Y, N196R, N197D (ligand)
chain: B7 chain with S34A, I195V, H196Y, N197R, N198D

- Kd [7]: 3.1 nM
B13: Ser-PRL S33D, Q73L, M75T, N76S, F80L, G129R, K190R (ligand)
chain: B7 chain with S34D, M76T, N77S, F81L

- Kd [6]: 13.9 nM
B14: Ser-PRL G129R (ligand)
chain: B7 chain with L74Q, R191K
notes: The control row gives one KD under the double label 'PRL G129R/Ser-PRL G129R'
